The record followed here is article PMC2196230 (The Journal of Experimental Medicine, 1997).

The series deals with the molecule itself. In words: SEC. (In general: In gel filtration, larger molecules generally elute earlier.)

B1: recombinant soluble signaling lymphocytic activation molecule (sSLAM) with a Flag sequence at the carboxy terminus (natural protein, human, UniProt Q13291-3 21-305, looked up)
chain: ASYGTGGRMMNCPKILRQLGSKVLLPLTYERINKSMNKSIHIVVTMAKSLENSVENKIVSLDPSEAGPPRYLGDRYKFYLENLTLGIRESRKEDEGWYLMTLEKNVSVQRFCLQLRLYEQVSTPEIKVLNKTQENGTCTLILGCTVEKGDHVAYSWSEKAGTHPLNPANSSHLLSLTLGPQHADNIYICTVSNPISNNSQTFSPWPGCRTDPSGKTNHYQTTVEKKSLTIYAQVQKPGPLQKKLDSFPAQDPCTTIYVAATEPVPESVQETNSITVYASVTLPES
As a reminder, the stoichiometry N is the number of molecules, sites or subunits per partner or assembly. On to B1, for which the “stoichiometry N” value amounted to 2.
